Target: T1, synthetic peptide of the C1q A chain, residues 14–26 (collagen region)
T1 peptide: AGRPGRRGRPGLK
Experiment: ELISA

PWNASWSNKSLDDIWNC [gp41-3S, 17-residue synthetic peptide corresponding to the 3S motif of gp41]
binding result: binds
